{"source": "patent US20080279844", "proteins": {"B1": {"name": "Tissue transglutaminase (TG2, EC 2.3.2.13) (protein)", "chain": "AEELVLERCDLELETNGRDHHTADLCREKLVVRRGQPFWLTLHFEGRNYEASVDSLTFSVVTGPAPSQEAGTKARFPLRDAVEEGDWTATVVDQQDCTLSLQLTTPANAPIGLYRLSLEASTGYQGSSFVLGHFILLFNAWCPADAVYLDSEEERQEYVLTQQGFIYQGSAKFIKNIPWNFGQFEDGILDICLILLDVNPKFLKNAGRDCSRRSSPVYVGRVVSGMVNCNDDQGVLLGRWDNNYGDGVSPMSWIGSVDILRRWKNHGCQRVKYGQCWVFAAVACTVLRCLGIPTRVVTNYNSAHDQNSNLLIEYFRNEFGEIQGDKSEMIWNFHCWVESWMTRPDLQPGYEGWQALDPTPQEKSEGTYCCGPVPVRAIKEGDLSTKYDAPFVFAEVNADVVDWIQQDDGSVHKSINRSLIVGLKISTKSVGRDEREDITHTYKYPEGSSEEREAFTRANHLNKLAEKEETGMAMRIRVGQSMNMGSDFDVFAHITNNTAEEYVCRLLLCARTVSYNGILGPECGTKYLLNLNLEPFSEKSVPLCILYEKYRDCLTESNLIKVRALLVEPVINSYLLAERDLYLENPEIKIRILGEPKQKRKLVAEVSLQNPLPVALEGCTFTVEGAGLTEEQKTVEIPDPVEAGEEVKVRMDLLPLHMGLHKLVVNFESDKLKAVKGFRNVIIGPA"}}, "molecular_target": "T1, IκBα, P25963", "T1 chain": "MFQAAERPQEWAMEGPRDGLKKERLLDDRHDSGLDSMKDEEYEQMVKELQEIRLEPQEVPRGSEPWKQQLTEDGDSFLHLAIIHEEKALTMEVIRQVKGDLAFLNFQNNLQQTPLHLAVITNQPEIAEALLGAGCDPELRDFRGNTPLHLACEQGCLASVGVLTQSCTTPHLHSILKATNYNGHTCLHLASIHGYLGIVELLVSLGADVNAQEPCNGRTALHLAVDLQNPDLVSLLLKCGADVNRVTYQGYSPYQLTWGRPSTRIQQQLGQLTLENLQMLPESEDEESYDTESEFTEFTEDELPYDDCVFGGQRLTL", "data": [{"protein": "B1", "values": [{"measurement": "in vitro BPA labeling of IκBα immunoprecipitates in the presence of Ca2+ (3 mM), probed with horseradish peroxidase-conjugated streptavidin", "value": "demonstrated the presence of high-molecular-weight forms (dimeric and polymeric) of IκBα"}]}]}
